Assay results published in the RNAGym collection of RNA variant scans (doi:10.7554/elife.80360).

B1: HDV Ribozyme (parent)
chain: GGCCGGCAUGGUCCCAGCCUCCUCGCUGGCGCCGGCUGGGCAACAUUCCGAGGGGACCGUCCCCUCGGUAAUGGCGAAUGGGACCCA

Variants of: B1
Assay: self-cleavage, relative activity (ratio to wild type); higher = more cleavage; co-transcriptional

Point of comparison: GGCCGGCAUGGUCCCAGCCUCCUCGCUGGCGCCGGCUGGGCAACAUUCCGAGUGGACCGUCCCCUCGGUAAUGGCGAAUGGGAUCCA, self-cleavage 0.821. Against it:
- GGCCGGCAUGGUCCCAGCCUCCUCGCUGGCGCUGGCUGGGCAACAUUCCGAGGGGAUCGUCCCCUCGGUAAUGGCGAAUGGGACCCA — lower, 0.719
- GGCCGGCAUGGACCCAGCCUCCUCGCUGGCGCCGGCUGGGCAACAUUCCGAGGGGACCAUCCCCUCGGUAAUGGCGAAUGGGACCCA — lower, 0.172
- GGCCGGCAUGGUCCCAACCUCCUCGCUGGCGCCGGCUGGGCAACAUUCCGAGGCGACCGUCCCCUCGGUAAUGGCGAAUGGGACCCA — lower, 0.458
- GGCCGGCAUGGUCCCAGCAUCGUCGCUGGCGCCGGCUGGGCAACAUUCCGAGGGGACCGUCCCCUCGGUAAUGGCGAAUGGGACCCA — lower, 0.155
- GGCCGGCAUGGUCCCAGCCUCCUCGCUGGCGCCGGCUGGGCAACAAUCCGAGGGGACCGUCCCCUCGGUAGUGGCGAAUGGGACCCA — higher, 0.895
- GGCCGGCAUUGUCCCAGCCUCCUCGCUGGCGCCGGCUGGGCAACAUUCCUAGGGGACCGUCCCCUCGGUAAUGGCGAAUGGGACCCA — lower, 0.796
- GGCCGGCAUGGUCCCAGCCUCCUCGCUGGCGCCGGCUGGGCAACAUUCCCAGGGGACCGGCCCCUCGGUAAUGGCGAAUGGGACCCA — higher, 1.03
- GGCCGGCAUGGUCCCAGCCUCCUCGCUGGCGCCGGCUGGGCAACAUUCCGAGGGGACCGUCGCCUCGGUUAUGGCGAAUGGGACCCA — lower, 0.665
- GGCCGGCAUGGUCCCAGACUCCUCCCUGGCGCCGGCUGGGCAACAUUCCGAGGGGACCGUCCCCUCGGUAAUGGCGAAUGGGACCCA — lower, 0.0405
- GGCCGGCAUGGUCCCAGCCUCCUCGUUGGCGCCGGCUGGGCAACAUUCCGAGGGGACCGUUCCCUCGGUAAUGGCGAAUGGGACCCA — higher, 0.941
- GGCCGGCAUGGUCCCAGCCUCCUCGCUGGCGCCGGCUGGGCAACAUUCCGAGGGGACCGUGCCCUCGGUAAUGGCGAAUGGGACCGA — higher, 0.941
- GGCCGGCAUGGUCCCAGCCUCCUCGCGGGCGCCGGCUGGGCAACAUUCCGAGGGGACCGUCCCCUCGGUAAUGGCGAAGGGGACCCA — lower, 0.427
- GGCCGGCAUGGUCCGAGCCUCCUCGCUGGCGCCGGCUGGGCAACAUUCCGAGGGUACCGUCCCCUCGGUAAUGGCGAAUGGGACCCA — lower, 0.677
- GGCCGGCAUGGUACCAGCCUCCUCGCUGGCGCCGGCUGGGCAACAUUCCGAGGGGACCGUCCCCUCGUUAAUGGCGAAUGGGACCCA — lower, 0.125
- GGCCGGCACAGUCCCAGCCUCCUCGCUGGCGCCGGCUGGGCAACAUUCCGAGGGGACCGUCCCCUCGGUAAUGGCGAAUGGGACCCA — higher, 0.985
- GGCCGGCAUGGUCCCAGCCUCCUCGCUGGCGCCGGCUGGGCAACAUUGCGAGGGGACCGUCCCCUCGGUAAUGGCGAUUGGGACCCA — lower, 0.142
- GGCCGGCAAGGUCCCAGCCUCCUCGCUGGCGCCGGCUGGGCAACAUUCCGAGGGGACCGUCCCCUCGGUAAUGGCGAAUGGGACCGA — higher, 1.04
- GGCCGGCGUGGUUCCAGCCUCCUCGCUGGCGCCGGCUGGGCAACAUUCCGAGGGGACCGUCCCCUCGGUAAUGGCGAAUGGGACCCA — lower, 0
- GGCCGGCAUGGUCCCAACCGCCUCGCUGGCGCCGGCUGGGCAACAUUCCGAGGGGACCGUCCCCUCGGUAAUGGCGAAUGGGACCCA — lower, 0.156
- GGCCGGCAUGGUCCCAGCCUCCUCGCUGGCGCCGGCUUGGCAACAUUCCGACGGGACCGUCCCCUCGGUAAUGGCGAAUGGGACCCA — lower, 0.169
- GGCCGGCAUGGUCCCAGCCUACUCGCUGGCGCCGGCUGGGCAACAUUCCGAGGGGACCGUCCCCUCGGUAAGGGCGAAUGGGACCCA — lower, 0.166
- GACCGGCAUGGUCCCAGCCUCCUCGCUGGCGCCGGCUGGGCAACAUUCCGAGGGGACCGUCCCAUCGGUAAUGGCGAAUGGGACCCA — lower, 0.248
- GGCCGGCAUGGUCCCAGCGUCCUCGCUGGCGCCGGCUGGGCAACAUUCCGAGGGGACGGUCCCCUCGGUAAUGGCGAAUGGGACCCA — lower, 0.0739
- GGCCGGCAUGGUCCCAGCCUCCUCGCUGGCCCCGGCUGGGCAACAUUCCGCGGGGACCGUCCCCUCGGUAAUGGCGAAUGGGACCCA — lower, 0.475
- GGCCUGCAUGGUCCCAGCCUCCUCGCUGGCGCCGGCUGGGCCACAUUCCGAGGGGACCGUCCCCUCGGUAAUGGCGAAUGGGACCCA — lower, 0.178
- GGCCGGCAAGGUCCCAGCCUCCUCGCUGGCGCCGGCUGUGCAACAUUCCGAGGGGACCGUCCCCUCGGUAAUGGCGAAUGGGACCCA — higher, 0.917
- GGCCGGCAUGGUCCCAGCCUCCUCGCUGGCGACGGCUGGGCAAGAUUCCGAGGGGACCGUCCCCUCGGUAAUGGCGAAUGGGACCCA — lower, 0.107
- GGCCGGCAUGGUCCCAGCCUCCUCGCUGGCGCCGGCUGGGCAACAUUCCGAGGGGACCGUCCCCUCGGGAAUGGCGGAUGGGACCCA — higher, 1.29
- GGCCGGCAUGGUCCCAGCCUCCUCGCUGGCGCCGGCUGGGUAACAUUCCGAGGGGACCGUCCCCUCGGUAAUGGCGAAUGGGACACA — higher, 0.937
- GGCCGGCAUGGUCCCAGCCUCCUCGCUGGCGCCGGCUGGGCAACAUUCCGAGGGGACCGUCCCCUCGGUAAUGGCGAAUGGAACACA — lower, 0.253
- GGCCGGAAUGGUCCCAGCCUCCUCGCUGGCGCCGGCUGGGCAACAUUCCGAGGGGACCGUCCCCUCGGUAAUUGCGAAUGGGACCCA — lower, 0.128
